Six molecules from patent US20260167699A1 (Chugai, published 2026) can be followed below.

The assay concerns the target T1, FcγRIIIaV (human, UniProt P08637 17-208).
T1 construct: extracellular domain
Kind of assay: SPR (Biacore), antibody captured, FcγR as analyte, 1:1 Langmuir fit.

T1 sequence (P08637 other isoform, or with tags, fused parts or gaps): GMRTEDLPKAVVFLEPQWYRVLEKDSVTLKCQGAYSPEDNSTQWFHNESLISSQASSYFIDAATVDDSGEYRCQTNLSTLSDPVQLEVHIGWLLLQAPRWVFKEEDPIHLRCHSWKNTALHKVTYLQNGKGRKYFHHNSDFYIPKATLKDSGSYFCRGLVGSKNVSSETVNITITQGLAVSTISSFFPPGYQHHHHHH
Method: The antibody of interest was analyzed for its interaction with FcγR using a BiaCore™ T100, BiaCore™ A100, or BiaCore™ 4000 surface plasmon resonance system (GE Healthcare Japan Corp.). The running buffer used was HBS-EP+ (GE Healthcare Japan Corp.). The assay temperature was set to 25° C. The sensor chips used were: a chip prepared by immobilizing antigenic peptides onto Series S Sensor Chip CM5 (GE Healthcare Japan Corp.) by the amine coupling method; a chip prepared by immobilizing antigenic peptides biotinylated in advance onto Series S Sensor Chip SA (certified) (GE Healthcare Japan Corp.) through their interaction; a chip prepared by immobilizing protein L (ACTIGEN, BioVision, Inc.) onto Series S Sensor Chip CM5 (GE Healthcare Japan Corp.); and a chip prepared by immobilizing protein A/G (Thermo Fisher Scientific K.K.) onto Series S Sensor Chip CM5 (GE Healthcare Japan Corp.). The antibody of interest was captured onto any of these chips and allowed to interact with FcγR diluted with a running buffer. The antibody captured on the chip was washed off through the reaction of 10 mM glycine-HCl (pH 1.5) to regenerate the chip, which was repetitively used.

B1: HI076-L2-3 (antibody, human IgG1, kappa)
heavy 1: QDQLVQSGAEVKKPGASVKVSCKASGFNIKDTYIQWVRQAPGQGLEWMGRIDPLRKQTKYREKFEGRVTITADTSTNTAYMELSSLRSEDTAVYYCVRSGREFDYWGQGTLVTVSSASTKGPSVFPLAPSSKSTSGGTAALGCLVKDYFPEPVTVSWNSGALTSGVHTFPAVLQSSGLYSLSSVVTVPSSSLGTQTYICNVNHKPSNTKVDKKVEPKSCDKTHTCPPCPAPELLGGPSVFLFPPKPKDTLMISRTPEVTCVVVDVSHGGSEEPEVKFNWYVDGVEVHNAKTKPREEQYNSTYRVVSVLTVLHQDWLNGKEYKCKVSNDALPMPIEETISKAKGQPREPQVYTLPPSRCELTKNQVSLSCAVKGFYPSDIAVEWESNGQPENNYKTTPPVLDSDGSFFLVSKLTVDKSRWQQGNVFSCSVMHEALHNHYTQKSLSLSP
heavy 2: QDQLVQSGAEVKKPGASVKVSCKASGFNIKDTYIQWVRQAPGQGLEWMGRIDPLRKQTKYREKFEGRVTITADTSTNTAYMELSSLRSEDTAVYYCVRSGREFDYWGQGTLVTVSSASTKGPSVFPLAPSSKSTSGGTAALGCLVKDYFPEPVTVSWNSGALTSGVHTFPAVLQSSGLYSLSSVVTVPSSSLGTQTYICNVNHKPSNTKVDKKVEPKSCDKTHTCPPCPAPEYQWGPMVFLFPPKPKDTLMISRTPEVTCVVVDVSDEEPEVKFNWYVDGVEVHNAKTKPREEQYNATYRVVSVLTVLHQDWLNGKEYKCKVSNKALPAPIEKTISKAKGQPREPQVCTLPPSRDELTKNQVSLWCLVKGFYPSDIAVEWESNGQPENNYKTTPPVLDSDGSFFLYSKLTVDKSRWQQGNVFSCSVMHEALHNHYTQKSLSLSP
light: DIQMTQSPSSLSASVGDRVTITCRASQDIHKYIAWYQQKPGQAPRLLIQYTSTLQPGVPSRFSGSGSGTDYTFTISSLQPEDIATYYCLQYEQLRTFGGGTKVEIKRTVAAPSVFIFPPSDEQLKSGTASVVCLLNNFYPREAKVQWKVDNALQSGNSQESVTEQDSKDSTYSLSSTLTLSKADYEKHKVYACEVTHQGLSSPVTKSFNRGEC
notes: heterodimerized anti-EREG antibody: altered H240-Hl076 chain (Gly/Ser peptide in loop) with H240-Kn125 and L73-k0; also called Hl076-L2-3
By Kd is commonly meant the constant that tells how readily two partners part at equilibrium. High values mean lower affinity, low ones higher affinity. In the case of B1, binding was characterised by a dissociation constant (Kd) of 2.3 nM.

B2: HI076-L3-3 (antibody, human IgG1, kappa)
heavy 1: QDQLVQSGAEVKKPGASVKVSCKASGFNIKDTYIQWVRQAPGQGLEWMGRIDPLRKQTKYREKFEGRVTITADTSTNTAYMELSSLRSEDTAVYYCVRSGREFDYWGQGTLVTVSSASTKGPSVFPLAPSSKSTSGGTAALGCLVKDYFPEPVTVSWNSGALTSGVHTFPAVLQSSGLYSLSSVVTVPSSSLGTQTYICNVNHKPSNTKVDKKVEPKSCDKTHTCPPCPAPELLGGPSVFLFPPKPKDTLMISRTPEVTCVVVDVSHEEPEVKFNWYVDGVEVHNAKTKPREEQYNSTGGSYRVVSVLTVLHQDWLNGKEYKCKVSNDALPMPIEETISKAKGQPREPQVYTLPPSRCELTKNQVSLSCAVKGFYPSDIAVEWESNGQPENNYKTTPPVLDSDGSFFLVSKLTVDKSRWQQGNVFSCSVMHEALHNHYTQKSLSLSP
heavy 2: B1 heavy 2
light: B1 light
notes: heterodimerized anti-EREG antibody: altered H240-Hl076 chain (Gly/Ser peptide in loop) with H240-Kn125 and L73-k0; also called Hl076-L3-3
Take B2: the Kd came out at 2.9 nM.

B3: HI076-L3-9 (antibody, human IgG1, kappa)
heavy 1: QDQLVQSGAEVKKPGASVKVSCKASGFNIKDTYIQWVRQAPGQGLEWMGRIDPLRKQTKYREKFEGRVTITADTSTNTAYMELSSLRSEDTAVYYCVRSGREFDYWGQGTLVTVSSASTKGPSVFPLAPSSKSTSGGTAALGCLVKDYFPEPVTVSWNSGALTSGVHTFPAVLQSSGLYSLSSVVTVPSSSLGTQTYICNVNHKPSNTKVDKKVEPKSCDKTHTCPPCPAPELLGGPSVFLFPPKPKDTLMISRTPEVTCVVVDVSHEEPEVKFNWYVDGVEVHNAKTKPREEQYNSTGGSGGSGGSYRVVSVLTVLHQDWLNGKEYKCKVSNDALPMPIEETISKAKGQPREPQVYTLPPSRCELTKNQVSLSCAVKGFYPSDIAVEWESNGQPENNYKTTPPVLDSDGSFFLVSKLTVDKSRWQQGNVFSCSVMHEALHNHYTQKSLSLSP
heavy 2: B1 heavy 2
light: B1 light
notes: heterodimerized anti-EREG antibody: altered H240-Hl076 chain (Gly/Ser peptide in loop) with H240-Kn125 and L73-k0; also called Hl076-L3-9
With B3, binding was put at a Kd of 7.3 nM. Against the preceding molecule, the Kd is about 2.5-fold higher.

B4: Kn125-L4-GS7 (antibody, human IgG1, kappa)
heavy 1: QDQLVQSGAEVKKPGASVKVSCKASGFNIKDTYIQWVRQAPGQGLEWMGRIDPLRKQTKYREKFEGRVTITADTSTNTAYMELSSLRSEDTAVYYCVRSGREFDYWGQGTLVTVSSASTKGPSVFPLAPSSKSTSGGTAALGCLVKDYFPEPVTVSWNSGALTSGVHTFPAVLQSSGLYSLSSVVTVPSSSLGTQTYICNVNHKPSNTKVDKKVEPKSCDKTHTCPPCPAPELLGGPSVFLFPPKPKDTLMISRTPEVTCVVVDVSHEEPEVKFNWYVDGVEVHNAKTKPREEQYNSTYRVVSVLTVLHQDWLNGKEYKCKVSNDALPMPIEETISKAKGQPREPQVYTLPPSRCELTKNQVSLSCAVKGFYPSDIAVEWESNGQPENNYKTTPPVLDSDGSFFLVSKLTVDKSRWQQGNVFSCSVMHEALHNHYTQKSLSLSP
heavy 2: QDQLVQSGAEVKKPGASVKVSCKASGFNIKDTYIQWVRQAPGQGLEWMGRIDPLRKQTKYREKFEGRVTITADTSTNTAYMELSSLRSEDTAVYYCVRSGREFDYWGQGTLVTVSSASTKGPSVFPLAPSSKSTSGGTAALGCLVKDYFPEPVTVSWNSGALTSGVHTFPAVLQSSGLYSLSSVVTVPSSSLGTQTYICNVNHKPSNTKVDKKVEPKSCDKTHTCPPCPAPEYQWGPMVFLFPPKPKDTLMISRTPEVTCVVVDVSDEEPEVKFNWYVDGVEVHNAKTKPREEQYNATYRVVSVLTVLHQDWLNGKEYKCKVSNGGSGGGSPIEKTISKAKGQPREPQVCTLPPSRDELTKNQVSLWCLVKGFYPSDIAVEWESNGQPENNYKTTPPVLDSDGSFFLYSKLTVDKSRWQQGNVFSCSVMHEALHNHYTQKSLSLSP
light: B1 light
notes: heterodimerized anti-EREG antibody: altered H240-Kn125 chain (Gly/Ser peptide in loop) with H240-Hl076 and L73-k0
B4 yielded a dissociation constant (Kd) of 2 nM.

B5: HI076-L2-9 (antibody, human IgG1, kappa)
heavy 1: QDQLVQSGAEVKKPGASVKVSCKASGFNIKDTYIQWVRQAPGQGLEWMGRIDPLRKQTKYREKFEGRVTITADTSTNTAYMELSSLRSEDTAVYYCVRSGREFDYWGQGTLVTVSSASTKGPSVFPLAPSSKSTSGGTAALGCLVKDYFPEPVTVSWNSGALTSGVHTFPAVLQSSGLYSLSSVVTVPSSSLGTQTYICNVNHKPSNTKVDKKVEPKSCDKTHTCPPCPAPELLGGPSVFLFPPKPKDTLMISRTPEVTCVVVDVSHGGSGGSGGSEEPEVKFNWYVDGVEVHNAKTKPREEQYNSTYRVVSVLTVLHQDWLNGKEYKCKVSNDALPMPIEETISKAKGQPREPQVYTLPPSRCELTKNQVSLSCAVKGFYPSDIAVEWESNGQPENNYKTTPPVLDSDGSFFLVSKLTVDKSRWQQGNVFSCSVMHEALHNHYTQKSLSLSP
heavy 2: B1 heavy 2
light: B1 light
notes: heterodimerized anti-EREG antibody: altered H240-Hl076 chain (Gly/Ser peptide in loop) with H240-Kn125 and L73-k0; also called Hl076-L2-9
The molecule B5 registered a Kd of 2.4 nM. The Kd values of the last two molecules are within 1.5-fold of each other.

B6: HI076-L3-6 (antibody, human IgG1, kappa)
heavy 1: QDQLVQSGAEVKKPGASVKVSCKASGFNIKDTYIQWVRQAPGQGLEWMGRIDPLRKQTKYREKFEGRVTITADTSTNTAYMELSSLRSEDTAVYYCVRSGREFDYWGQGTLVTVSSASTKGPSVFPLAPSSKSTSGGTAALGCLVKDYFPEPVTVSWNSGALTSGVHTFPAVLQSSGLYSLSSVVTVPSSSLGTQTYICNVNHKPSNTKVDKKVEPKSCDKTHTCPPCPAPELLGGPSVFLFPPKPKDTLMISRTPEVTCVVVDVSHEEPEVKFNWYVDGVEVHNAKTKPREEQYNSTGGSGGSYRVVSVLTVLHQDWLNGKEYKCKVSNDALPMPIEETISKAKGQPREPQVYTLPPSRCELTKNQVSLSCAVKGFYPSDIAVEWESNGQPENNYKTTPPVLDSDGSFFLVSKLTVDKSRWQQGNVFSCSVMHEALHNHYTQKSLSLSP
heavy 2: B1 heavy 2
light: B1 light
notes: heterodimerized anti-EREG antibody: altered H240-Hl076 chain (Gly/Ser peptide in loop) with H240-Kn125 and L73-k0; also called Hl076-L3-6
B6 gave a Kd of 7.2 nM.
